In patent US7629437:

Molecular target: T1, Ac-Leu-Thr-Phe-Lys-ACC
T1 chain: LTFK

B1: Cruzain (protein)
chain: APAAVDWRARGAVTAVKDQGQCGSCWAFSAIGNVECQWFLAGHPLTNLSEQMLVSCDKTDSGCSGGLMNNAFEWIVQENNGAVYTEDSYPYASGEGISPPCTTSGHTVGATITGHVELPQDEAQIAAWLAVNGPVAVAVDASSWMTYTGGVMTSCVSEQLDHGVLLVGYNDSAAVPYWIIKNSWTTQWGEEGYIRIAKGSNQCLVKEEASSAVVG
  cleavage products (HPLC and MALDI of the digest): Product fragments corresponding to cleavage between Thr-Phe were observed (data not shown)
